Measured values reported in patent US20230313190.

Biological target: T1, Flag-Atxn1-82Q-HA, P54253
T1 chain: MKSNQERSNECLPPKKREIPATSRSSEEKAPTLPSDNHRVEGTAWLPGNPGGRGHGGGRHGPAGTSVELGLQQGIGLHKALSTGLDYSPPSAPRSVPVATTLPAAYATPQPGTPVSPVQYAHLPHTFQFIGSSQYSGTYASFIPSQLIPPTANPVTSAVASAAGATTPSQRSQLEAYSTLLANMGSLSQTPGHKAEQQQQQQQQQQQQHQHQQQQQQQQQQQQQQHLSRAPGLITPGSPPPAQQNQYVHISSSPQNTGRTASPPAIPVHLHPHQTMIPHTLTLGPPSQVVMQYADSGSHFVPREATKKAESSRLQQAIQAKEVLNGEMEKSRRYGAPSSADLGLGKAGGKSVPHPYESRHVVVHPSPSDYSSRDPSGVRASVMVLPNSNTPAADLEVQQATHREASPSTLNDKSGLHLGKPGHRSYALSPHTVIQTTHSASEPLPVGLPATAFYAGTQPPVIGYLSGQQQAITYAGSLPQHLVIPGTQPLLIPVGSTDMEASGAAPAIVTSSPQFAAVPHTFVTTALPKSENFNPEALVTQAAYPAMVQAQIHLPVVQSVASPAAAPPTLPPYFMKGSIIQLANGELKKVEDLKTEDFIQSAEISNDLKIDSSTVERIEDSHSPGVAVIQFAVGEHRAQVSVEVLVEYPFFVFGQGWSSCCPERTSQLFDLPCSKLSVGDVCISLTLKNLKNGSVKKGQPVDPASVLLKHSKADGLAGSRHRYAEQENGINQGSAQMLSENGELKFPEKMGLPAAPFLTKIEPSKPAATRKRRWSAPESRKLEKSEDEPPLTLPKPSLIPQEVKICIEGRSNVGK

B1: GST-rRNF4 (protein)
chain: MSTRNPQRKRRGGAVNSRQTQKRTRETTSTPEISLEAEPIELVETVGDEIVDLTCESLEPVVVDLTHNDSVVIVEERRRPRRNGRRLRQDHADSCVVSSDDEELSKDKDVYVTTHTPRSTKDEGTTGLRPSGTVSCPICMDGYSEIVQNGRLIVSTECGHVFCSQCLRDSLKNANTCPTCRKKINHKRYHPIYI
- in vitro ubiquitination assay: the unmodified Atxn1 82Q protein was not ubiquitinated
